{"source": "paper PMC12510010", "about": "(The Journal of Biological Chemistry, 2025)", "key": {"[1]": {"test_system": "CFTR-dependent fluid secretion, organoids", "conditions": "cited from earlier work"}, "[2]": {"test_system": "C-terminal 50 amino acids of GCC (GCCC50)", "format": "binding"}, "[3]": {"test_system": "GCC catalytic domains (Cyan-GCCcat and Yellow-GCCcat)", "format": "cell-based"}, "[4]": {"test_system": "FLAG-GCC in HEK-293 cells", "format": "cell-based"}, "[5]": {"test_system": "C-terminal 50 amino acids of MRP4 (MRP4C50)", "format": "binding"}, "MRP4C50 and GCCC50": {"test_system": "MRP4C50 and GCCC50", "format": "binding", "conditions": "4 °C"}, "[6]": {"target": "Cyan- and yellow-tagged GCC catalytic domains (human)", "assay": "FRET or BRET; sensitized FRET in HEK 293 cells between Cyan-GCCcat and Yellow-GCCcat, co-expressed with pCDNA3 empty vector, HA-NHERF3, HA-NHERF4, HA-NHERF4 PDZ1 or HA-NHERF4 delPDZ1; STc (1 uM) stimulation"}, "GCC": {"test_system": "GCC", "format": "biochemical, human"}, "[7]": {"test_system": "CFTR-dependent fluid secretion, mouse enteroids", "format": "cell-based"}, "[8]": {"target": "T1, GCC catalytic domain (GCCcat, amino acids 824-954), purified (human, UniProt P25092 824-954)", "T1 construct": "also called GCC catalytic subunit", "T1 sequence (P25092 824-954)": "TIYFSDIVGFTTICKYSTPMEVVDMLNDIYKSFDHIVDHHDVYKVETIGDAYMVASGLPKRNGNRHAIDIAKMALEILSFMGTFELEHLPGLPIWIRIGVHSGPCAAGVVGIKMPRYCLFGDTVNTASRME", "assay": "HRP-based binding assay on S-beads; 20 ug purified GCCcat immobilised on S-beads, 7.5 uM Biotin N4-195 overnight at 4 C, washed with PBS 0.2% Triton-X-100, streptavidin HRP with TMB, absorbance at 450 nm; control: S-beads without GCCcat", "conditions": "both partners purified"}, "HA-GCC": {"target": "HA-GCC (human, UniProt P25092 24-1073)", "assay": "cell-based or functional assay"}, "GST-NHERF1": {"target": "T2, GST-NHERF1 (human, UniProt O14745 1-358)", "T2 construct": "also called EBP50; GST-tagged NHERF1", "T2 sequence (looked up)": "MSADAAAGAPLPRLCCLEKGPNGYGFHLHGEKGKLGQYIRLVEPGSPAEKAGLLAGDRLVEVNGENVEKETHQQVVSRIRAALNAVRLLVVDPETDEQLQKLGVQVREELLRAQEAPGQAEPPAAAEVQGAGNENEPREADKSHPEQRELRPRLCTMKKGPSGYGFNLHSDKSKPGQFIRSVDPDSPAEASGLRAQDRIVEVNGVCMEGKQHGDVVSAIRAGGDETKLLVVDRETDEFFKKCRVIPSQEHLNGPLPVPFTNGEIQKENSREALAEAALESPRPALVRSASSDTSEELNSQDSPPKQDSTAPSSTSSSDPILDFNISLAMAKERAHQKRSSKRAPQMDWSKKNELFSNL", "assay": "far-Western, overlay or dot blot; dot blot: GST-NHERF1-4 and GST on nitrocellulose, GCCC50 overlaid, probed with in-house anti-GCC rabbit polyclonal antibody; saturating NHERF, > 1.2 pmoles", "conditions": "both partners purified"}, "GST-NHERF2": {"target": "T3, GST-NHERF2 (human, UniProt Q15599 1-337)", "T3 construct": "also called E3KARP; GST-tagged NHERF2", "assay": "far-Western, overlay or dot blot; dot blot: GST-NHERF1-4 and GST on nitrocellulose, GCCC50 overlaid, probed with in-house anti-GCC rabbit polyclonal antibody; saturating NHERF, > 1.2 pmoles", "conditions": "both partners purified"}, "GST-NHERF3 [9]": {"target": "T4, GST-NHERF3 (human, UniProt Q5T2W1 1-519)", "T4 construct": "also called PDZK1; CAP70", "T4 sequence (looked up)": "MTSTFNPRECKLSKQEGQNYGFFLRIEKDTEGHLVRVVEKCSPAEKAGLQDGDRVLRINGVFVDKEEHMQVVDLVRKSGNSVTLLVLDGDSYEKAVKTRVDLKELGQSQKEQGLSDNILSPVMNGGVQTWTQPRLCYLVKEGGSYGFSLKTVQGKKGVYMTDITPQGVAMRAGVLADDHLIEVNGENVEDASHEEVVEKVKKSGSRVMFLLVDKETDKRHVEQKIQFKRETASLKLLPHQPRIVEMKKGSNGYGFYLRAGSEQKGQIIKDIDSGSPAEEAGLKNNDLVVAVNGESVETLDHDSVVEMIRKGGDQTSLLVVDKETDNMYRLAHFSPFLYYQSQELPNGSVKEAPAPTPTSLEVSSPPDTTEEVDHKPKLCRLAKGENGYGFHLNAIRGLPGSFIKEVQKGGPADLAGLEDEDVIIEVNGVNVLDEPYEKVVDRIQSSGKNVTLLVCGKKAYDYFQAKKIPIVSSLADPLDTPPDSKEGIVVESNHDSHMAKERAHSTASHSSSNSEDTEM", "assay": "far-Western, overlay or dot blot; dot blot: GST-NHERF1-4 and GST on nitrocellulose, GCCC50 overlaid, probed with in-house anti-GCC rabbit polyclonal antibody; saturating NHERF, > 1.2 pmoles", "conditions": "both partners purified"}, "GST-NHERF3 [10]": {"target": "T4, GST-NHERF3", "assay": "far-Western, overlay or dot blot; slot blot (macromolecular complex assay): GST-His-S-MRP4-C50 (0, 5 and 20 ug) and GST alone on nitrocellulose, 5 ug GST-NHERF3 overnight at 4 C, then 0.5 ug purified Flag-GCC-C50 at 4 C; detected with a GCC C-terminal specific antibody", "conditions": "both partners purified"}}, "note": "Entries after “also recorded” stand apart in the source; their conditions may differ. Ends that are not written are not given here."}
{"molecule": "C=C[C@@]1(C)CC(=O)[C@]2(O)[C@@]3(C)[C@@H](O)CCC(C)(C)[C@@H]3[C@H](O)[C@H](OC(C)=O)[C@@]2(C)O1", "note": "[Forskolin]", "values": [{"measurement": "Fluid secretion response (organoid swelling)", "setting": "[1]", "result": "highly robust fluid secretion response"}]}
{"molecule": "NHERF3: PDZ adaptor protein; GST-fusion protein or HA-tagged construct", "values": [{"measurement": "Binding order of NHERFs to GCC", "setting": "[2]", "result": "highest binding affinity for GCC among the NHERF proteins; also recorded: NHERF3> NHERF1> NHERF2> NHERF4"}, {"measurement": "FRET efficiency of GCCcat oligomerization", "setting": "[3]", "result": "0.51 ± 0.08"}, {"measurement": "Binding to GCC with increasing concentrations of STc", "setting": "[4]", "result": "not affected"}, {"measurement": "Binding order of NHERFs to MRP4", "setting": "[5]", "result": "NHERF3> NHERF2≥ NHERF1> NHERF4"}, {"measurement": "Macromolecular complex formation of GCC and MRP4 via NHERF3", "setting": "MRP4C50 and GCCC50", "result": "GCC could exist in a macromolecular complex with MRP4 via NHERF3"}]}
{"molecule": "HA-NHERF4 PDZ1 (domain or fragment)", "values": [{"measurement": "FRET efficiency of GCCcat oligomerization with this protein co-expressed", "setting": "[6]", "result": 0.21}]}
{"molecule": "H-RHAHDVARAQL-OH [N4-195]", "values": [{"measurement": "GCC activity (cGMP) in the presence of single peptide", "setting": "GCC", "result": "did not affect GCC activity"}]}
{"molecule": "H-LERPRFCLL-OH [N4-110, peptide in NHERF4 PDZ1 domain homologous to GCC catalytic domain]", "values": [{"measurement": "GCC activity (cGMP) in the presence of single peptide", "setting": "GCC", "result": "did not affect GCC activity"}]}
{"molecule": "H-PRCDRVLHHFLRAALLQEAR-OH [N4-scrambled, scrambled peptide with same amino acid composition as N4-110 and N4-195 combined]", "values": [{"measurement": "STc-stimulated secretion with scrambled peptide, high concentrations", "setting": "[7]", "result": "some non-specific inhibition was observed at high concentrations"}, {"measurement": "STc-stimulated secretion with scrambled peptide, lower concentrations", "setting": "[7]", "result": "did not reduce STc-stimulated secretion at lower concentrations"}]}
{"molecule": "Cyan- and yellow-tagged GCC catalytic domains (domain or fragment)", "values": [{"measurement": "FRET efficiency of GCCcat oligomerization (control, empty vector)", "setting": "[6]", "result": 0.54}]}
{"molecule": "RHAHDVARAQL (not fully specified (N-terminus); also: biotin label, position not given here, also called N4-Biotin)", "note": "[Biotin-N4-195 peptide]", "values": [{"measurement": "binding result", "setting": "[8]", "result": "binds"}]}
{"molecule": "NHERF1: PDZ adaptor protein; purified as GST-fusion protein (protein, left off: GST, end not stated, kept) MSADAAAGAPLPRLCCLEKGPNGYGFHLHGEKGKLGQYIRLVEPGSPAEKAGLLAGDRLVEVNGENVEKETHQQVVSRIRAALNAVRLLVVDPETDEQLQKLGVQVREELLRAQEAPGQAEPPAAAEVQGAGNENEPREADKSHPEQRELRPRLCTMKKGPSGYGFNLHSDKSKPGQFIRSVDPDSPAEASGLRAQDRIVEVNGVCMEGKQHGDVVSAIRAGGDETKLLVVDRETDEFFKKCRVIPSQEHLNGPLPVPFTNGEIQKENSREALAEAALESPRPALVRSASSDTSEELNSQDSPPKQDSTAPSSTSSSDPILDFNISLAMAKERAHQKRSSKRAPQMDWSKKNELFSNL", "values": [{"measurement": "Binding order of NHERFs to GCC", "setting": "[2]", "result": "NHERF3> NHERF1> NHERF2> NHERF4"}, {"measurement": "Binding order of NHERFs to MRP4", "setting": "[5]", "result": "NHERF3> NHERF2≥ NHERF1> NHERF4"}]}
{"molecule": "GST-NHERF4 (natural protein, human, UniProt Q86UT5 1-571, looked up) MVTPSPPGNHSLSLEAPRLHTASDLLGNHSLGLPLITALVGSRDRRGRVFSPVPVPLPTNPTTQHPTRQKLPSTLSGHRVCQAHGEPVLGLCPLLPLFCCPPHPPDPWSLERPRFCLLSKEEGKSFGFHLQQELGRAGHVVCRVDPGTSAQRQGLQEGDRILAVNNDVVEHEDYAVVVRRIRASSPRVLLTVLARHAHDVARAQLGEDAHLCPTLGPGVRPRLCHIVKDEGGFGFSVTHGNQGPFWLVLSTGGAAERAGVPPGARLLEVNGVSVEKFTHNQLTRKLWQSGQQVTLLVAGPEVEEQCRQLGLPLAAPLAEGWALPTKPRCLHLEKGPQGFGFLLREEKGLDGRPGQFLWEVDPGLPAKKAGMQAGDRLVAVAGESVEGLGHEETVSRIQGQGSCVSLTVVDPEADRFFSMVRLSPLLFLENTEAPASPRGSSSASLVETEDPSLEDTSVPSVPLGSRQCFLYPGPGGSYGFRLSCVASGPRLFISQVTPGGSAARAGLQVGDVILEVNGYPVGGQNDLERLQQLPEAEPPLCLKLAARSLRGLEAWIPPGAAEDWALASDLL", "values": [{"measurement": "inhibition of the cGMP formation of HA-GCC immunoprecipitated on HA beads by 200 nM purified GST-NHERF4, relative to the GST-only control", "setting": "HA-GCC", "result": 38, "unit": "%"}, {"measurement": "FRET efficiency of GCCcat oligomerization with this protein co-expressed", "setting": "[6]", "result": 0.17}]}
{"molecule": "NHERF2: PDZ adaptor protein; purified as GST-fusion protein (protein, left off: GST, end not stated, kept) MAAPEPLRPRLCRLVRGEQGYGFHLHGEKGRRGQFIRRVEPGSPAEAAALRAGDRLVEVNGVNVEGETHHQVVQRIKAVEGQTRLLVVDQETDEELRRRQLTCTEEMAQRGLPPAHDPWEPKPDWAHTGSHSSEAGKKDVSGPLRELRPRLCHLRKGPQGYGFNLHSDKSRPGQYIRSVDPGSPAARSGLRAQDRLIEVNGQNVEGLRHAEVVASIKAREDEARLLVVDPETDEHFKRLRVTPTEEHVEGPLPSPVTNGTSPAQLNGGSACSSRSDLPGSDKDTEDGSAWKQDPFQESGLHLSPTAAEAKEKARAMRVNKRAPQMDWNRKREIFSNF", "values": [{"measurement": "Binding order of NHERFs to GCC", "setting": "[2]", "result": "NHERF3> NHERF1> NHERF2> NHERF4"}, {"measurement": "Binding order of NHERFs to MRP4", "setting": "[5]", "result": "NHERF3> NHERF2≥ NHERF1> NHERF4"}]}
{"molecule": "AEFSDMIANSLQKRQAAGIRSQKPRRVASYKKGTLEYLQLNTTDKESTYF (domain or fragment, human, UniProt P25092 1024-1073, looked up)", "note": "[C-terminal 50 amino acids of GCC (GCCC50)]", "values": [{"measurement": "binding result", "setting": "GST-NHERF1", "result": "binds"}, {"measurement": "binding result", "setting": "GST-NHERF2", "result": "binds"}, {"measurement": "binding result", "setting": "GST-NHERF3 [9]", "result": "binds"}]}
{"molecule": "AEFSDMIANSLQKRQAAGIRSQKPRRVASYKKGTLEYLQLNTTDKESTYF (domain or fragment, human, UniProt P25092 1024-1073, looked up, also called GCCC50)", "note": "[Flag-GCC-C-terminal 50 aa]", "values": [{"measurement": "binding result", "setting": "GST-NHERF3 [10]", "result": "binds"}]}
